The values that follow come from publication PMC7539366 (Cell host & microbe, 2020).

In assay [1] the target is T1, CVA16 empty particle (strain CVA16/190) (Coxsackievirus A16, strain CVA16/190 …, strain).
T1 chain 1: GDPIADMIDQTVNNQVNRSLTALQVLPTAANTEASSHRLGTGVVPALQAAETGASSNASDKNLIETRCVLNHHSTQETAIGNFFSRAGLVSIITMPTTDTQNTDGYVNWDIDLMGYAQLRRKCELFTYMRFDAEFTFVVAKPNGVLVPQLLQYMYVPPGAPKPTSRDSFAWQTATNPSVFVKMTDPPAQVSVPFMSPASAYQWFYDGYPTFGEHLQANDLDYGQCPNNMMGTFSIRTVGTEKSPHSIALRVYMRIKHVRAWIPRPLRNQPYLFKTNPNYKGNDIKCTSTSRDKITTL
T1 chain 2: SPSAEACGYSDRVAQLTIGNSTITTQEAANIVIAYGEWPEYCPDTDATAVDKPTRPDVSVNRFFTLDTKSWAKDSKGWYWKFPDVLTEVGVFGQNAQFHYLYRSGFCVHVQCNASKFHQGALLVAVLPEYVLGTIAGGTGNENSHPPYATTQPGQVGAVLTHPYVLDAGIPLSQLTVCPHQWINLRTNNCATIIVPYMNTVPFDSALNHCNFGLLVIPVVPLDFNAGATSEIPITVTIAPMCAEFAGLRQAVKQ
T1 chain 3: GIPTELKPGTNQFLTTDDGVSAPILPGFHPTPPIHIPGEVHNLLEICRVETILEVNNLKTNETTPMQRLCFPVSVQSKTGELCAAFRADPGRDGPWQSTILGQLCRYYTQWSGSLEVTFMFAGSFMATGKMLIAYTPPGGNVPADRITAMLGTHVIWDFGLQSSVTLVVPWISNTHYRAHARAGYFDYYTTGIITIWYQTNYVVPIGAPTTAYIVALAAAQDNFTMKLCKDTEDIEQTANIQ
Put plainly: ELISA.

For assay [2], the target named is CVA16 mature virion (strain CVA16/190) (coxsackievirus A16 (strain CVA16/190)).
Assay [3] has as its target T2, CVA16 mature virion (strain CVA16/190) (Coxsackievirus A16, strain CVA16/190 …, strain).
T2 chain 1: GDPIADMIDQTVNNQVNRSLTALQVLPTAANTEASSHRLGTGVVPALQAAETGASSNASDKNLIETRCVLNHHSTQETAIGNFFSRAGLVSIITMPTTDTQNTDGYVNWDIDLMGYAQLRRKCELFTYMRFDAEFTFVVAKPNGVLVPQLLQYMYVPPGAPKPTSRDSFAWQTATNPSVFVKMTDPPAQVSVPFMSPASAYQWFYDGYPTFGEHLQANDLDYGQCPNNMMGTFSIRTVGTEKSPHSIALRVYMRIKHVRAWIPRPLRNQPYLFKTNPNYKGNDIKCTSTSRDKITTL
T2 chain 2: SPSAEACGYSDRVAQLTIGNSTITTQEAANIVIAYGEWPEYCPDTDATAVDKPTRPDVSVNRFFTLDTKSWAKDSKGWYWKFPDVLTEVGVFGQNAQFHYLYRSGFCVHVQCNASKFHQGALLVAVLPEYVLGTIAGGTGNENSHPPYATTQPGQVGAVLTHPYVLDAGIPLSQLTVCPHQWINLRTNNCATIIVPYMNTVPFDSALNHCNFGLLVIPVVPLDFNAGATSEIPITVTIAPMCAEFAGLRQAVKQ
T2 chain 3: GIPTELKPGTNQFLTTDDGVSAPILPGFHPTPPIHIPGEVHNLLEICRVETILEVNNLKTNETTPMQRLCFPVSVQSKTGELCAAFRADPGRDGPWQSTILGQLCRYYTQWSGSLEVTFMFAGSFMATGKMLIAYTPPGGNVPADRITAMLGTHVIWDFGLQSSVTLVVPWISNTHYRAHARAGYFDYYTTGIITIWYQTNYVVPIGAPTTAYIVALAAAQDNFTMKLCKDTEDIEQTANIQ
T2 chain 4: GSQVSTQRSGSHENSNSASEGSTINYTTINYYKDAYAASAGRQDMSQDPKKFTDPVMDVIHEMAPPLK
Put plainly: cryo-EM structure.

The target of assay [4] is T1, CVA16 empty particle (strain CVA16/190). Put plainly: cryo-EM structure.
In assay [5] the target is T3, CVA16 A-particle (strain CVA16/190) (Coxsackievirus A16, strain CVA16/190 …, strain).
T3 chain 1: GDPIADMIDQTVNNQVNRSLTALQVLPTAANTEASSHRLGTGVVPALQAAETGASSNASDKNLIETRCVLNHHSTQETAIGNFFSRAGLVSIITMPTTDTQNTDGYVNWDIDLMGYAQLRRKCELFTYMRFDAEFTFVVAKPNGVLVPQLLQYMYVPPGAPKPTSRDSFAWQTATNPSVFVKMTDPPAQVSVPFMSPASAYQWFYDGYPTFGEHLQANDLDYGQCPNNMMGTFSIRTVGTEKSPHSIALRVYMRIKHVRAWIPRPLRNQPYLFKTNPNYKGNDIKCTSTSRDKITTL
T3 chain 2: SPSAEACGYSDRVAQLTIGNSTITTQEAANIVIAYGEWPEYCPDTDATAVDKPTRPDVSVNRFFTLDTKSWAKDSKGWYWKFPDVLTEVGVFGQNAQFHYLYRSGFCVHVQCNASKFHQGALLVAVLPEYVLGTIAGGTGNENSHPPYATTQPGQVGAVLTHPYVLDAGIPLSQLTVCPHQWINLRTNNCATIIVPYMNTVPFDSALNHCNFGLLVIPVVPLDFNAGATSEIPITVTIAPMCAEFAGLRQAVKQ
T3 chain 3: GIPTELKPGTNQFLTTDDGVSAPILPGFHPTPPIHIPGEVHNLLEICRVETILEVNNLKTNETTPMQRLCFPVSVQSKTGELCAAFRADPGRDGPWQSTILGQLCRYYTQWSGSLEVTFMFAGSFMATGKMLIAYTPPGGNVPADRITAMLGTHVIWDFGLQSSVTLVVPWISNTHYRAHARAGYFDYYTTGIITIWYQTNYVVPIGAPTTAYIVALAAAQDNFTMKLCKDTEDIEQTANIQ
Put plainly: cryo-EM structure.

B1: Mouse Monoclonal Antibody-NA9D7 (antibody, V domains shown)
VH: EVQLQQSGPELVKPGASVKMSCKASGYTFTDYYMKWVKQSHGKSLEWIGDINPNNGATSYNQKFKGKATLTVDKSSSTAYMQLNSLTSEDSAVYYCARRGYGLYYAMDYWGQGTSVTVSS
VL: EIVLTQSPTTMAASPGEKITITCSASSSISSNYLHWYQQKPGFSPKLLIYRTSNLASGVPARFSGSGSGTSYSLTIGTMEAEDVATYYCQQGSSIPHTFGGGTKLEIK
Turning to B1, the binding result in assay [1] is “no binding”. In addition, in assay [2], the IC50 of neutralisation of CVA16/190 in RD cells (micro-neutralization, Elispot) was determined as 1.96 µg/mL.

B2: NA9D7 Fab fragment (Fab, V domains shown)
VH: EVQLQQSGPELVKPGASVKMSCKASGYTFTDYYMKWVKQSHGKSLEWIGDINPNNGATSYNQKFKGKATLTVDKSSSTAYMQLNSLTSEDSAVYYCARRGYGLYYAMDYWGQGTSVTVSS
VL: EIVLTQSPTTMAASPGEKITITCSASSSISSNYLHWYQQKPGFSPKLLIYRTSNLASGVPARFSGSGSGTSYSLTIGTMEAEDVATYYCQQGSSIPHTFGGGTKLEIK
Turning to B2, in assay [3], the stoichiometry N (in general, the number of molecules, sites or subunits per partner or assembly) was at most 60 Fabs per mature virion.

B3: Mouse Monoclonal Antibody-18A7 (antibody, V domains shown)
VH: EVQLQQSGPELVKPGASVKMSCKASGYTFTDYYMKWVKQSHGKSLEWIGDINPYNGDSFNNQKFKGKATLTVDTSSSTAYMQLNSLTSEDSAVYYCAIPYDYDEGWFAYWGQGTLVTVSA
VL: DIVMSQSPSSLAVSVGEKVTMSCKSSQSLLYSNNQKNYLAWYQQKPGQSPQLLIYWASTRESGVPDRFTGSESGTDFTLTISSVKAEDLAVFYCQQYYNYPWTFGGGTKLEIK
As for B3, the IC50 of neutralisation of CVA16/190 in RD cells (micro-neutralization, Elispot) in assay [2] was 0.04 µg/mL.

B4: 18A7 Fab fragment (Fab, V domains shown)
VH: EVQLQQSGPELVKPGASVKMSCKASGYTFTDYYMKWVKQSHGKSLEWIGDINPYNGDSFNNQKFKGKATLTVDTSSSTAYMQLNSLTSEDSAVYYCAIPYDYDEGWFAYWGQGTLVTVSA
VL: DIVMSQSPSSLAVSVGEKVTMSCKSSQSLLYSNNQKNYLAWYQQKPGQSPQLLIYWASTRESGVPDRFTGSESGTDFTLTISSVKAEDLAVFYCQQYYNYPWTFGGGTKLEIK
In the case of B4, the “stoichiometry N” value in assay [4] and in assay [5] was 12 Fabs per viral particle each time.

B5: Mouse Monoclonal Antibody-14B10 (antibody, V domains shown)
VH: QVQLQQSGPELVKPGASVKISCKASGYEFSRSWMNWVKQRPGQGLEWIGRIYPGDGDTNYNGKFRDKATLTADKSSSTAYMQLSRLTSVDSAVYFCARRRGYFDVWGAGTTVTVS
VL: DIQMTQSSSYLSVSLGGRVTITCKASDHINNWLAWYQQKPGNAPRLLISGATSLETGIPSRFSGSGSGKDYTLSITSLQTEDVGTYYCQQYWSTPTFGGGTKLEIK
Take B5: the binding result in assay [1] is “no binding”. This molecule displayed an IC50 of neutralisation of CVA16/190 in RD cells (micro-neutralization, Elispot) in assay [2] of 1.01 µg/mL.

B6: 14B10 Fab fragment (Fab, V domains shown)
VH: QVQLQQSGPELVKPGASVKISCKASGYEFSRSWMNWVKQRPGQGLEWIGRIYPGDGDTNYNGKFRDKATLTADKSSSTAYMQLSRLTSVDSAVYFCARRRGYFDVWGAGTTVTVS
VL: DIQMTQSSSYLSVSLGGRVTITCKASDHINNWLAWYQQKPGNAPRLLISGATSLETGIPSRFSGSGSGKDYTLSITSLQTEDVGTYYCQQYWSTPTFGGGTKLEIK
In the case of B6, the “stoichiometry N” value in assay [3] was at most 60 Fabs per mature virion.
